The target of one assay is T1, Hu/Cy/Rh ROR1-His (human/cyno/rhesus, UniProt Q01973 30-403, limits assumed).
T1 construct: Purified His-tagged ROR1 protein; also called HUMAN/CYNO/RHESUS ROR-1; not shown: His tag
As to the kind of experiment: SPR, purified protein. Background: SPR reads the build-up and loss of mass on a sensor chip optically.

In assay [1] the target is T2, human ROR-1 endogenously expressed on JeKo-1 and MDA-MB-468 cells (human, UniProt Q01973 30-937).
T2 construct: whole, on cells; also called ROR-1 receptor; receptor tyrosine kinase like orphan receptor 1
The assay can be described thus: flow cytometry, cell binding saturation on ROR-1 positive cells. As to the method:
A cell binding saturation assay was developed to evaluate how well the anti_ROR-1 antibodies developed in Example 28 bound to endogenously expressed extracellular ROR-1 protein on cell lines. […] Cells were then washed and subjected to secondary antibody staining and detection by flow cytometry. Mean fluorescence (MFI) was determined by analysis on cytometer software. […] (See FIG. 27).
In general terms: Flow cytometry measures light scatter and fluorescence of single cells or particles in a stream.

In a further assay the target is T3, Mouse ROR1-His (mouse, UniProt Q9Z139 30-403, limits assumed).
T3 construct: Purified His-tagged mouse ROR1 protein; not shown: His tag
As to the kind of experiment: SPR, purified protein.

In assay [2] the target is T2, human ROR-1 endogenously expressed on …. As to the kind of experiment: cell-based or functional assay.

T3 sequence (Q9Z139 30-403 limits assumed): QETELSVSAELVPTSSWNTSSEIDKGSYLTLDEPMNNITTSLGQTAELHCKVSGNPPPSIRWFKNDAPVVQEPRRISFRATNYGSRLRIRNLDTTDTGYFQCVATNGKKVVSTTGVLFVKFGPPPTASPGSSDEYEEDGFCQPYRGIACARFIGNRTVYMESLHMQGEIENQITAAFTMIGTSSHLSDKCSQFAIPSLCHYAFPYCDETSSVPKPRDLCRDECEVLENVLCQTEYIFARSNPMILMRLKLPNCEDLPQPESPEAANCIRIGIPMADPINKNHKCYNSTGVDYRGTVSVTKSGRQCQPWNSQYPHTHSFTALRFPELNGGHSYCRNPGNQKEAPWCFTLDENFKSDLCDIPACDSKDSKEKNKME

B1: ATX-P-885 (antibody, human IgG1, kappa, V domains shown)
VH: QVQLQQWGAGLLKPSETLSLTCAVYGGSFSGYYWSWIRQPPGKGLEWIGEINHSGSTNYNPSLKSRVTISVDTSKNQFSLKLSSVTAADTAVYYCAREGVYEDYWGQGTLVTVSS
VL: EIVLTQSPATLSLSPGERATLSCRASQSVSNYLAWYQQKPGQAPRLLIYDAYNRATGIPARFSGSGSGTDFTLTISSLEPEDFAVYYCQQRSNWPLTFGQGTRLEIKR
notes: Full length IgG (IgG1, kappa) expressed in HEK293; also called mAb B
The Kd is the constant that tells how readily two partners part at equilibrium. Read a high Kd as lower affinity. The koff is the first-order rate constant of dissociation. By kon is commonly meant the second-order rate constant of association. The low end stands for slower complex formation, the high end for faster complex formation. As to B1, in the assay with Hu/Cy/Rh ROR1-His, the affinity, expressed as Kd, was 10.9 nM; the koff stood at 0.00295 s⁻¹; the kon was found to be 270000 M⁻¹ s⁻¹. For the same molecule, the saturating concentration in assay [1] was 74 nM. In the assay with Mouse ROR1-His, this molecule displayed a Kd of 45.3 nM, a koff of 0.00132 s⁻¹ and a kon of 29200 M⁻¹ s⁻¹. In assay [2], the “percent receptor internalization relative to zero hours” value is not below 75%.

B2: ATX-P-875 (antibody, human IgG1, kappa, V domains shown)
VH: not shown
VL: DIQMTQSPSSLSASVGDRVTITCRASQSISSYLNWYQQKPGKAPKLLIYAASSLQSGVPSRFSGSGSGTDFTLTISSLQPEDFATYYCQQYDNLPITFGQGTRLEIKR
notes: Full length IgG (IgG1, kappa) expressed in HEK293; also called mAb A
In assay [1], B2 registered a saturating concentration of 74 nM.

Source of the values: patent US20230330242A1 (published 2023).
